The experiment deals with STARD1^S195E mutant (human StAR domain, residues 66-285) (human) (UniProt P49675). Put plainly: SEC. For orientation: SEC sorts molecules by how far they enter the pores of the column.

Experimental findings from publication doi:10.1101/116368 are described below.

Regarding “STARD1^S195E mutant (human StAR domain, residues 66-285) (from UniProt P49675 66-285) (domain or fragment)”, the fraction of dimers was under 3%.
